Data: IntAct's records for PubMed 24012959

B1: "Na(+)/H(+) exchange regulatory cofactor NHE-RF1" (Homo sapiens), O14745 (parent)
chain: MSADAAAGAPLPRLCCLEKGPNGYGFHLHGEKGKLGQYIRLVEPGSPAEKAGLLAGDRLVEVNGENVEKETHQQVVSRIRAALNAVRLLVVDPETDEQLQKLGVQVREELLRAQEAPGQAEPPAAAEVQGAGNENEPREADKSHPEQRELRPRLCTMKKGPSGYGFNLHSDKSKPGQFIRSVDPDSPAEASGLRAQDRIVEVNGVCMEGKQHGDVVSAIRAGGDETKLLVVDRETDEFFKKCRVIPSQEHLNGPLPVPFTNGEIQKENSREALAEAALESPRPALVRSASSDTSEELNSQDSPPKQDSTAPSSTSSSDPILDFNISLAMAKERAHQKRSSKRAPQMDWSKKNELFSNL

Variants of: B1
Details: with pgfrb_human PDGFRB

Question: With MSADAAAGAPLPRLCCLEKGPNGYGFHLHGEKGKLGQYIRLVEPGSPAEKAGLLAGDRLVEVNGENVEKETHQQVVSRIRAALNAVRLLVVDPETDEQLQKLGVQVREELLRAQEAPGQAEPPAAAEVQGAGNENEPREADKSHPEQRELRPRLCTMKKGPSGYGFNLHSDKSKPGQFIRSVDPDSPAEASGLRAQDRIVEVNGVCMEGKQHGDVVSAIRAGGDETKLLVVDRETDEFFKKCRVIPSQEHLNGPLPVPFTNGEIQKENSREALAEAALESPRPALVRSASSDTSEELNSQVSPPKQDSTAPSSTSSSDPILDFNISLAMAKERAHQKRSSKRAPQMDWSKKNELFSNL [D301V] as the variant, how does the “effect of a mutation on the interaction” value read?
Answer: Its value is “increasing interaction”.
